Biological target: RepSTK1(1-269), residues 1-269 of the rolling-circle replication initiator protein RepSTK1 of plasmid pSTK1 (Geobacillus stearothermophilus (plasmid pSTK1))
Test: SEC-MALS; analytical gel filtration on Superdex S75 10/300, 50 µl protein loaded, 50 mM Tris-HCl pH 7.5, 500 mM KCl; eluate through DAWN HELIOS II MALLS detector; dimer

- stoichiometry N: 2
Substance: RepSTK1(1-269), residues 1-269 of the rolling-circle replication initiator protein RepSTK1 of plasmid pSTK1 (domain or fragment)
